± gives the standard deviation of the averaged measurements.
Assay: total protein half-life in vivo (active degradation + dilution); higher = more stable protein
[1] = E. coli NCM3722 delta-clpP delta-lon delta-hslV, growth: N-lim chemostat, doubling time 6 h
[2] = E. coli NCM3722 delta-clpP, growth: N-lim chemostat, doubling time 6 h
[3] = E. coli NCM3722 delta-hslV, growth: N-lim chemostat, doubling time 6 h
[4] = E. coli NCM3722 delta-lon, growth: N-lim chemostat, doubling time 6 h
[5] = E. coli NCM3722 delta-smpB, growth: N-lim chemostat, doubling time 6 h
[6] = wild type E. coli NCM3722, growth: C-lim chemostat, doubling time 3 h
[7] = wild type E. coli NCM3722, growth: C-lim chemostat, doubling time 6 h
[8] = wild type E. coli NCM3722, growth: C-lim chemostat, doubling time 12 h
[9] = wild type E. coli NCM3722, growth: N-lim chemostat, doubling time 6 h
[10] = wild type E. coli NCM3722, growth: P-lim chemostat, doubling time 6 h
[11] = wild type E. coli NCM3722, growth: N-lim chemostat, doubling time 12 h
[12] = wild type E. coli NCM3722, growth: P-lim chemostat, doubling time 12 h

Row | Sequence | total protein half-life in vivo [1] | total protein half-life in vivo [2] | total protein half-life in vivo [3] | total protein half-life in vivo [4] | total protein half-life in vivo [5] | total protein half-life in vivo [6] | total protein half-life in vivo [7] | total protein half-life in vivo [8] | total protein half-life in vivo [9] | total protein half-life in vivo [10] | total protein half-life in vivo [11] | total protein half-life in vivo [12]
1 | MNIEELKKQAETEIADFIAQKIAELNKNTGKEVSEIRFTAREKMTGLESYDVKIKIM [P0AC92] | > 8 h | 5.88 ± 0.43 h | 6.62 ± 0.26 h | 6.72 ± 0.85 h | 5.86 ± 0.59 h | 2.98 ± 0.29 h | 4.55 ± 2.8 h | 10 ± 1.4 h | 5.99 ± 1.4 h | 6.14 h |  | 
2 | MNIELRHLRYFVAVAEELHFGRAAARLNISQPPLSQQIQALEQQIGARLLARTNRSVLLTAAGKQFLADSRQILSMVDDAAARAERLHQGEAGELRIGFTSSAPFIRAVSDTLSLFRRDYPDVHLQTREMNTREQIAPLIEGTLDMGLLRNTALPESLEHAVIVHEPLMAMIPHDHPLANNPNVTLAELAKEPFVFFDPHVGTGLYDDILGLMRRYHLTPVITQEVGEAMTIIGLVSAGLGVSILPASFKRVQLNEMRWVPIAEEDAVSEMWLVWPKHHEQSPAARNFRIHLLNALR | 6 ± 0.22 h | 5.84 ± 0.3 h | 6.28 ± 0.17 h | 5.5 ± 0.23 h | 5.65 ± 0.16 h |  | 6.3 ± 1.5 h | 11.97 ± 0.024 h | 6.8 ± 0.96 h | 5.12 ± 0.62 h | 12.5 ± 1.8 h | 13.3 ± 0.86 h
3 | MNIFEQTPPNRRRYGLAAFIGLIAGVVSAFVKWGAEVPLPPRSPVDMFNAACGPESLIRAAGQIDCSRNFLNPPYIFLRDWLGLTDPNAAVYTFAGHVFNWVGVTHIIFSIVFAVGYCVVAEVFPKIKLWQGLLAGALAQLFVHMISFPLMGLTPPLFDLPWYENVSEIFGHLVWFWSIEIIRRDLRNRITHEPDPEIPLGSNR [P0AAA1] | 6.706 ± 0.025 h |  |  | 6.72 ± 0.32 h | 6.16 ± 0.29 h | 3.21 ± 0.28 h | 6.707 ± 0.0077 h | 14.5 ± 0.3 h | 5.96 ± 0.12 h | 6.57 ± 1.5 h |  | 13.7 ± 1.1 h
4 | MNIFTEAAKLEEQNCPFAMAQIVDSRGSTPRHSAQMLVRADGSIVGTIGGGMVERKVIEESLQALQERKPRLFHGRMARNGADAVGSDCGGAMSVFISVHGMRPRLVLIGAGHVNRAIAQSAALLGFDIAVADIYRESLNPELFPPSTTLLHAESFGAAVEALDIRPDNFVLIATNNQDREALDKLIEQPIAWLGLLASRRKVQLFLRQLREKGVAEEHIARLHAPVGYNIGAETPQEIAISVLAEILQVKNNAPGGLMMKPSHPSGHQLVVIRGAGDIASGVALRLYHAGFKVIMLEVEKPTVIRCTVAFAQAVFDGEMTVEGVTARLATSSAEAMKLTERGFIPVMVDPACSLLDELKPLCVVDAILAKQNLGTRADMAPVTIALGPGFTAGKDCHAVIETNRGHWLGQVIYSGCAQENTGVPGNIMGHTTRRVIRAPAAGIMRSNVKLGDLVKEGDVIAWIGEHEIKAPLTGMVRGLLNDGLAVVGGFKIGDIDPRGETADFTSVSDKARAIGGGVLEALMMLMHQGVKATKEVLEVA | 5.14 ± 0.82 h | 1.65 ± 0.36 h |  |  |  |  |  |  |  |  | 1.22 h | 
5 | MNIIAIMGPHGVFYKDEPIKELESALVAQGFQIIWPQNSVDLLKFIEHNPRICGVIFDWDEYSLDLCSDINQLNEYLPLYAFINTHSTMDVSVQDMRMALWFFEYALGQAEDIAIRMRQYTDEYLDNITPPFTKALFTYVKERKYTFCTPGHMGGTAYQKSPVGCLFYDFFGGNTLKADVSISVTELGSLLDHTGPHLEAEEYIARTFGAEQSYIVTNGTSTSNKIVGMYAAPSGSTLLIDRNCHKSLAHLLMMNDVVPVWLKPTRNALGILGGIPRREFTRDSIEEKVAATTQAQWPVHAVITNSTYDGLLYNTDWIKQTLDVPSIHFDSAWVPYTHFHPIYQGKSGMSGERVAGKVIFETQSTHKMLAALSQASLIHIKGEYDEEAFNEAFMMHTTTSPSYPIVASVETAAAMLRGNPGKRLINRSVERALHFRKEVQRLREESDGWFFDIWQPPQVDEAECWPVAPGEQWHGFNDADADHMFLDPVKVTILTPGMDEQGNMSEEGIPAALVAKFLDERGIVVEKTGPYNLLFLFSIGIDKTKAMGLLRGLTEFKRSYDLNLRIKNMLPDLYAEDPDFYRNMRIQDLAQGIHKLIRKHDLPGLMLRAFDTLPEMIMTPHQAWQRQIKGEVETIALEQLVGRVSANMILPYPPGVPLLMPGEMLTKESRTVLDFLLMLCSVGQHYPGFETDIHGAKQDEDGVYRVRVLKMAG |  | 5.56 ± 0.19 h | 5.32 ± 0.2 h | 5.36 ± 0.26 h | 5.38 ± 0.089 h | 3.21 ± 0.1 h | 7.21 ± 0.98 h | 10.7 ± 3.7 h | 6.16 ± 1.5 h | 6.88 ± 1.5 h | 10.7 ± 0.83 h | 11.92 ± 0.053 h
6 | MNILGFFQRLGRALQLPIAVLPVAALLLRFGQPDLLNVAFIAQAGGAIFDNLALIFAIGVASSWSKDSAGAAALAGAVGYFVLTKAMVTINPEINMGVLAGIITGLVGGAAYNRWSDIKLPDFLSFFGGKRFVPIATGFFCLVLAAIFGYVWPPVQHAIHAGGEWIVSAGALGSGIFGFINRLLIPTGLHQVLNTIAWFQIGEFTNAAGTVFHGDINRFYAGDGTAGMFMSGFFPIMMFGLPGAALAMYFAAPKERRPMVGGMLLSVAVTAFLTGVTEPLEFLFMFLAPLLYLLHALLTGISLFVATLLGIHAGFSFSAGAIDYALMYNLPAASQNVWMLLVMGVIFFAIYFVVFSLVIRMFNLKTPGREDKEDEIVTEEANSNTEEGLTQLATNYIAAVGGTDNLKAIDACITRLRLTVADSARVNDTMCKRLGASGVVKLNKQTIQVIVGAKAESIGDAMKKVVARGPVAAASAEATPATAAPVAKPQAVPNAVSIAELVSPITGDVVALDQVPDEAFASKAVGDGVAVKPTDKIVVSPAAGTIVKIFNTNHAFCLETEKGAEIVVHMGIDTVALEGKGFKRLVEEGAQVSAGQPILEMDLDYLNANARSMISPVVCSNIDDFSGLIIKAQGHIVAGQTPLYEIKK | 6.3 ± 0.38 h | 6.68 ± 1.1 h | 6.55 ± 1.2 h | 5.86 ± 0.12 h | 5.83 ± 0.32 h | 3.142 ± 0.004 h | 5.88 ± 0.17 h | 11.9 ± 1.4 h | 5.91 ± 0.66 h | 6.04 ± 0.14 h | 11.5 ± 0.56 h | 12.6 ± 0.78 h

From the supplement of paper PMC11246515
